The nature of the series: yeast display, Sf9 membrane polyspecificity reagent, FACS + sequencing; frameworks hold sequencing errors. Put shortly:
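Nanobodies came from a synthetic yeast display library in Saccharomyces cerevisiae BJ5465, induced with galactose for 36–48 hours and stained for 1 hour at 4 °C with 10% biotinylated, detergent-solubilized Sf9 membrane reagent. Cells were enriched on streptavidin microbeads and then FACS-sorted, with low and high (top ~1%) gates set on anti-HA fluorescence for expression and streptavidin fluorescence for reagent binding. Each polyreactivity label reflects the gate a clone came from. Genes were amplified by colony PCR, sequenced by MiSeq 2 × 250 and filtered by CDR length.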
Consider “QVQLVESGGGFVQAGGSLRLSCAASGSIFAYYVMGWYRPAPGTERELGAAITSVGSTNYADSVKGRFTISRDNAKNTVYLQMNSLKPQDTAVYYCADDQYQARYYYWGQGTQVTVSS”, for which the “polyreactivity (PSR sort gate)” value is reported as “low polyreactivity”. Turning to “QVQLVESGGGLVQAGGSLRLSCAASGRTLVHYAMGWYRQAPGKERELVAAISIGGDSTYAVSVKGRFTISRDNAKNTVYLQMNSLKPEDTAVYYCAASGWWDFFDPYFKFDYWGQGTQVTVSS”, the “polyreactivity (PSR sort gate)” value was “low polyreactivity”. Turning to “QVQLVESGGGLVQAGGSLRLSCAASGSTFSWYAMGWYRQAPGKERELVAAISYSGGTYYADSVKGRFTISRDNEKNTVYLQMNSLKPEYNAVYYCAALRTRYGYDYWGQGTQVTLSS”, the “polyreactivity (PSR sort gate)” value is “high polyreactivity”.

On to “QVQLVESGGGLVQAGVSLRLSCAASGRIFVGYAMGWYRQAPGKERELVAGIRYSGGSTYYADSVKGRFTISRDNAKNTVYLQMNSLKPEDTAVYYCATQVWHYAGRPNYKYDYWGQGTQVTVSS”, for which the “polyreactivity (PSR sort gate)” value is given as “low polyreactivity”.

Regarding “QVQLVESGGGLVQAGGSLRLSCAASGAIFFVNDMGWYRQAPGKERELVAAITYSSGGTYYADSVKGRFTISRDNAKNTVYLQMNSLKPEDTAVYYCAVDFFLSYYSDMDYWGQGTQVTVSS”, the “polyreactivity (PSR sort gate)” value is on record as “low polyreactivity”.

For the sequence “QVQLVESGGGLVQAGGSLRISCAASGITLYNYPMGWYRQAPGKERELVAAISLSGGRTYYAESVKGRFTISRDNAKNTVYLQMNSLQTEDTAVYYCAADWLNSDPYNYWGQGTQVTVSS”, the “polyreactivity (PSR sort gate)” value is reported as “low polyreactivity”.

With “QVQLVESGGGLVQAGGSLRLSCAASGSIFYVKTMGWSRQAPGKEREFLAAINYSGDSTYADSVKGRFTISRDNAKNTVYLQMIRLKPEDTAVYYCNAVPVRYLRGRNGHDYWGQGTQVTVSS”, the “polyreactivity (PSR sort gate)” value is given as “high polyreactivity”.

Take “QVQLVESGGGLVQAGGSLRLSCAASGFTFFIYAMGWYRQAPGKERELVAAISLSGTSTYYADSVKGRFTISRDNAKNSVYLQMNSLKPEDTAVYYCAKDGAYWTYYSGYDYWGQVTQVTVSS”: the “polyreactivity (PSR sort gate)” value is reported as “low polyreactivity”.

On to “QVQLVEAGGGFVQAGGSLRLSCAASGSIIVPYAMGWYRQPPGKESELVAAISSRGGRTYYADSVKGRFTISRENAMNSVYLQMNSLKPEDSAVYDCNKTGGSHIPRLEYWGQGTQVTVSS”, for which the “polyreactivity (PSR sort gate)” value is “low polyreactivity”.

With “QVQLVESGGGLDHAGGPLRLSCAASGTIFAYYNMGWYRQPPGKERELVAGISKRGGNTYYADSVKGRFTISRDNAKNTVYLQMNSLKPEDTAVYYCNKRYSANTRGYYYWGQGTQVTVSS”, the “polyreactivity (PSR sort gate)” value is listed as “high polyreactivity”. Regarding “QVQLVESGGGLVQAGGSLRLSCAASGFIFTYYTMGWYRPAPGKERELVAAISRTGSTNYADSVKGRFTISRDNAKNTVYLQMNSLKPEDTAVYFCNARYRGWLTLDGGYGYWGQGTQVTVSS”, the “polyreactivity (PSR sort gate)” value is listed as “low polyreactivity”. The same measure for “QVQLLESGGCLGLAGASLRLSCAASGSTFSTYAMGWYRPAPGKERELVAAITRRGGRTYYADSVKGRFTISRDNAKNTVYLQMNCLKPEDTAVYSCNVLSGLFVQAEYDYWGQGTKVTVSS”: “high polyreactivity”; for “QVQLVESGGGLVQAGGSLRLSCAASGRIFAYYAMGWYRQAPGKERELVATITRGGNTNYADSVKGRFTISRDNAKNTVYLQMNSLKPEDTAVYYCNRRYSRWGIYDYWGQGTQVTVSS”: “high polyreactivity”. “QVQLVESGGGLVQAGGSLRLSCAASGRIFDYYAMGWYRQAPGKERELVAVISGSGGTYYADSVKGRFTISRDNAKNTVYLQMNSLKPEDTAVYYCNAAVTSYPGYEYWGQGTQVTVSS”: the “polyreactivity (PSR sort gate)” value is “low polyreactivity”. For the sequence “QDQLVESGGGLVQAGGSLRLSCAASGSTFGNYAMGWYRQAPGKERELVAAITSGGTTNYADSVKGRFTISRDNAKNTVYLQMNSLKPEDTAVYYCNAVGTFVRYSTDGRDGVTYDYWGHGTQVTVSS”, the “polyreactivity (PSR sort gate)” value is given as “low polyreactivity”. In the case of “QVQLVESGGGLVQAGGSLRLSCAASGFIFSFNAMGWYRQAPGKERELVAAISRRGGRTYYADSVKGRFTISRDNAKNTVYLQMNSLKPEDTAVYYCAAQGRDSTPHGYWGQGTQVTVSS” it was “high polyreactivity”; in that of “QVQLVESGGGLVQAGGSLRLSCAASGFTFNRTAMGWYRQAPGKERELVAAITRRGGSTYYADSVKGRFTISRDNAKNTVYLQMNSLKPEDTAVYYCAARRGAGDGYWGQGTQVTVSS”, “high polyreactivity”. The same measure for “QVQLVESGGGLVQAGGSLRLSCAATGSTFGGNAMGWYRQAPGKERELVAAISSSGGSTYYADSVKGRFTISRDNAKNTVYLQRNRLKPEDTAVYYCAALYHWTYDYWGQGTQVTVSS”: “low polyreactivity”; for “QFQLVESGGGLVQAGGSLRLSCAASGSTFAFYAMGRYRQAPGKERELVPAINLGGGSTYYAASVKGRFTISRDNAKNTVYLQMNSLKPEDTAVYYCAADFWTISWPVFDTYEYWGQGTQVTVSS”: “low polyreactivity”; for “QVQLVESGGGLVQAGGSLRLSCAASGRIFAYYAMGWYRQAPGKERELVAAISSGGTTNYADSVKGRFTISRDNAKITVYLQMNSLIPEDTAVYYCNADGWRRSRQYYYWGQGTQVTVSS”: “low polyreactivity”. As for “QFQLVESGGGLLQAGGSLRLSCAASGRIFVPYVMGWYRQAPGKERELVASISDTDTSTYYADSVKGRFTISRDIAKNIVYLQMNSLKPEDTAVYYWNVDYWGQGTQVTVSS”, the “polyreactivity (PSR sort gate)” value is “low polyreactivity”.

With “QVQLVESGGGLVQAGGSLRLICAASGSTFIVYAMGWSRQAPGKEREFVAAISSGDSTKYADSVKGRFTISRDNAKNTVYLQMNSLKPEDTAVYYCAKYGQRSIHSPSLVGYYYWGQGTQVTVSS”, the “polyreactivity (PSR sort gate)” value is “low polyreactivity”.

For the sequence “QVQLVESGGGLVQAGGSLRLSCAASGSTLNYYAMGWYRQAPGKERELVAAITWSGGSTSYADSVKGRFTISRDNAKNTVYLPMNSLKRDDTAVYYCATDFPTVQLYETDWLSSDMGYWGQGTQVNVSS”, the “polyreactivity (PSR sort gate)” value is given as “low polyreactivity”. As to “QVQLVESGGGLVEAGGSLRLSCAASGRTFDYNAMGWYRQAPGKERELVAAISRGGSTYYADSVKGRFTISRDNPNNSVYLQMNSLKPEDTAVYYCAALYVRVGYDYWGQGTQVTVSS”, the “polyreactivity (PSR sort gate)” value is reported as “high polyreactivity”.

In the case of “QVQLVESGGGLVQAGGSLRLSCAASGSTITYNAMGWYRQAPGKERELVAAITVSDGSTYYADSVKGRFTISRDNAKNTVYLQMNSLKPEDTAVYYCNKDRGHPFKYDYWGQGTQVTVSS”, the “polyreactivity (PSR sort gate)” value is on record as “low polyreactivity”. As to “QVQIVESGGGLVQAGGSLRLSCAPSGRIYGPYAIGLYRQEPGKERELDAAIRSGGSTNYADSVKGRFTISRDNAKNTVYLQMNSLNPEDTAVYYCNAVRHTYGYYSWGQGTQVTVSS”, the “polyreactivity (PSR sort gate)” value was “high polyreactivity”. For the sequence “QVQLVESGGGLVQAGGSLRLSCAASGIIFSVNAMGWYRQAPGKERELVAAISGSGGRTYYADSVKGRFTISRDNAKNTVYLQMNSLKPEDTAVYYCAARRTGKSYYGSRSGFDYWGQGTQVTVSS”, the “polyreactivity (PSR sort gate)” value is “high polyreactivity”. For the sequence “QVQLVESGGGLVQAGGSLRITCAASGSIYKSNAMGWYRQAPGKEREFVAAITWSGGSTYYADSVKGRFTISRDNAKNTVDLKMNSLKPEDTAVCYCAATQYRSDGWRYDYWGQGTQVTVSS”, the “polyreactivity (PSR sort gate)” value is given as “high polyreactivity”.

Consider “QVQLVESGGGLVQAGGSLRLSCAASGSIFDYYAMGWYRPAPGKERELVAAISDSGGSTYYADSVKGRFTISRDNAKNTVYLQMNSLKPEDTAVYYCNAVPRYQATWQESYDYDYWGQGTQVTVSS”, for which the “polyreactivity (PSR sort gate)” value was “high polyreactivity”.

For the sequence “QVQLVESGGGLVQAGGSLRLSCAASGSIIVGYAMGWYRQAPGTERELVAAISWSGGRTYYADSVKGRFTISRDNAKNSVYLQMNSLKPEDTAVYYCATVTKGSLRYNYNYWGQGTQVTVSS”, the “polyreactivity (PSR sort gate)” value is recorded as “high polyreactivity”. Regarding “QVQLVESGGGLVQAGGSLRLSCAASGSTFTNYAMGWYRQAPGKEREFVAAITFRGGRTYYADSVKGRFTISRDNAKNTVYLQMNSLKPEDTAVYYCNKRTSPKRFDYWGQGTQVTVSS”, the “polyreactivity (PSR sort gate)” value is listed as “high polyreactivity”.

On to “QVQLVESGGGLVQAGGSLRLSSAASGRIFVNYAMGSSRQAPGKERELVAAITSDGSTSYADSVNGRFTISRDNAKNTVFLEMNSLKPEDTAVYYCAKGQRDREEYDYWGQGTQVTVSS”, for which the “polyreactivity (PSR sort gate)” value is “low polyreactivity”. As for “QVQLVESGGGLVQAGGSLRLSCAASGGIFPHYVMGWYRQAPGKERELVAAITWSGGRTYYADSVKGRFTISRDNAKNTVYLQMNSMKPEDTAVYYCAADPFYLTKSGGWGDYWGQGTQVTVSS”, the “polyreactivity (PSR sort gate)” value is “low polyreactivity”. In the case of “QVQLVESGGCLVQAGGSLRLRCAASGRTLRCYAMGWYRQAPGKEREFVAAISRGTVGTYYADSVKGRFTISRDNAKNTVYLQMNSLKPEDTAVYYCAADRFAYFTNLRLGYYSWGQGTQVTVSS” it was “low polyreactivity”. Regarding “QVQLVESGGGLVQAGGSLRLSCAASGSTFYYNAMGWYRQAPGKERELVAAINRGGITYYADSVKGRFTISRDNAKNTVYLQMNSLKPEDTAVYYCAASRYPRSYVSYYYWGQGTQVTVSS”, the “polyreactivity (PSR sort gate)” value is “high polyreactivity”. For the sequence “QVQLVESGGGLVQAGGSLRLSCAASGITFYRYTMGWYRQAPGKERELVAAIRSAGSTYYADSVKGRFTISRDNAKNTVYLQMNSLKPEDTAVYYCAATYYRYNVPYYGGNGGDYWGQGTQVTVSS”, the “polyreactivity (PSR sort gate)” value is reported as “high polyreactivity”. Take “QVQLVESGGGLVQAGGSLRLSCAASGSTFWGYTMGWYRPAPGKERELVAAITGSGGSTNYADSVKGRFTISRDNAKNTVNLQMNSLKPEDTAVYYCAADVFTARRRYDYWGQGTQVTVSS”: the “polyreactivity (PSR sort gate)” value is “low polyreactivity”. As for “QVQLVESGGGLVQAGGSLRLSCAASGYTSNMGWYRQAPGKERELVAAITSGGDGTYYADSVKGRFTISRDNAKNTVYLQMNSLKPEDTAVYYCAKRGRDYNYGRAGYYWGQGTQVTVSS”, the “polyreactivity (PSR sort gate)” value was “low polyreactivity”. As for “QVQLVESGGGLVQAGGSLRLSCAASGSILPTNAMGWYRPAPGKERELVASITYNGGRTSYADSVKGRFTISRDNAKNTVYLQMNSLKPEDTAVYYCAARVWYQGYKSMGYWGQGTQVTVSS”, the “polyreactivity (PSR sort gate)” value was “high polyreactivity”. In the case of “QVQLVESGGGLVQAGGSLRLSCAASGRILVYYAMGWYRQAPGKERELVAAIRSSGSSTYYSDSVKGRFTISRDNAKNTVYLQMNSLKPEDTAVYYCAAYYYIGGKYGSQVYEYDYWGQGTQVTVSS”, the “polyreactivity (PSR sort gate)” value was “low polyreactivity”.

As for “QVQLVESGGGLVQAGGSLRLSCAASGRTFYGYAMGWYRQAPGKERELVAAITQRGVSTYADSVKGRFTISRDNAKNTVYLQMNSLKPEDTAVYYCAAEYYAYPYGDDYDYWGQGTQVTVSS”, the “polyreactivity (PSR sort gate)” value is given as “low polyreactivity”.

The values are drawn from the nanobody polyreactivity screen of Harvey et al. (2022).
